Reference: patent US20240343810A1 (published 2024)
Values belong to the binder of their own block, whether it stands above or below them.

Tests used:
[1] = biological target: T1, human ICOS-mFc (Chimerigen) (human, UniProt Q9Y6W8 21-140); test: DELFIA ELISA on coated human ICOS-mFc, mean
T1 construct: Bought; also called recombinant human ICOS protein; hICOS; not shown: mouse Fc of the bought fusion
T1 sequence: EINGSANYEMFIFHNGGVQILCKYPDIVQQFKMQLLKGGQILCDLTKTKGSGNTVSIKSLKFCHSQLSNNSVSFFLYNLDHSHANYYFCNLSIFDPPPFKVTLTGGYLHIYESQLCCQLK
Method: (§1) Recombinant ICOS proteins, human ICOS-mFc or mouse ICOS-mFc (Chimerigen) were diluted in 1×PBS and added to Black Hi-bind plates (Griener) at 1 μg/ml, 50 μl/well. Recombinant PD-L1 proteins, human PD-L1-Flag-His or mouse-His were diluted in 1×PBS and added to Black Hi-bind plates (Griener) at 4 μg/ml, 50 μl/well. The plates were left overnight at 4° C. The next day plates were washed 3× with 300 μl/well of 1×PBS+0.1% Tween and blocked with 200 ul/well of 1×PBS+1% BSA blocking buffer for 1 hr at RT on a plate shaker. Plates were washed 3× with 300 μl/well of 1×PBS+0.1% Tween.
(§2) However, human-PD-L1 mAb² antibodies were diluted in 1×PBS+0.1% BSA buffer and diluted 1 in 2 from a starting working concentration of 0.066 μM over an 11 point titration. Titrated antibodies were added to the plates, 50 μl/well and left to incubate for 1 hr at R.T on a plate shaker. Plates were washed 3× with 300 μl/well of 1×PBS+0.1% Tween.
(§3) DELFIA® Eu-labelled Anti-human IgG (Perkin-Elmer) was diluted 1:500 in DELFIA Assay buffer (Perkin-Elmer) and added to the assay plate (50 μl/well), left to incubate for 1 hr at RT on a plate shaker. […] After incubation, assay was read on Envision plate reader (Perkin Elmer), Time-resolved fluorescence (TRF) was measured at 615 nm.

[2] = biological target: T2, mouse ICOS-mFc (Chimerigen) (mouse, UniProt Q9WVS0 21-141, limits assumed); test: DELFIA ELISA on coated mouse ICOS-mFc, N=1
T2 construct: Bought; also called recombinant mouse ICOS protein; mICOS; not shown: mouse Fc of the bought fusion
T2 sequence: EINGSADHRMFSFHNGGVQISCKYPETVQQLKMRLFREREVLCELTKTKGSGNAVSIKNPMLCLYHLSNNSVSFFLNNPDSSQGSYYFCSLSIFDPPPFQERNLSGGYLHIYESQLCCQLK
Method: as §1, §2, §3

[3] = biological target: T3, mouse ICOS expressed on CHO cells (mouse, UniProt Q9WVS0 21-200); test: Flow cytometry on CHO-S mouse ICOS cells, anti-human IgG AF647, N=3
T3 construct: also called CHO-S cells transfected with mouse ICOS; mICOS
T3 sequence (looked up): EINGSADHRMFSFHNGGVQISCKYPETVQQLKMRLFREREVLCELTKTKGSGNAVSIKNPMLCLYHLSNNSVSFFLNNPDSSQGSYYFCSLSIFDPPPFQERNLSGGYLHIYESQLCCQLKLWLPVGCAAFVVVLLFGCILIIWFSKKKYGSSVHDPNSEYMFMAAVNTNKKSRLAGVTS
Method: CHO—S cells transfected with either human ICOS or mouse ICOS were resuspended in FACS buffer (PBS+1% w/v BSA+0.1% w/v sodium azide) and transferred to a 96-well V-bottom plate (Greiner) at a density of 1×10⁵ cells per well. mAb and mAb² were titrated in FACS buffer, 1 in 3 dilution across 11 points from a starting working concentration of 400 nM. Plates were centrifuged at 300×g for 3 minutes, supernatant discarded and 50 μL mAb or mAb² solution were added to cells and incubated at 4° C. for 1 hour. Cells were washed with 150 μL of PBS and centrifuged at 300×g for 3 minutes, supernatant was discarded and cell pellet resuspended in 150 μL PBS added. This wash step was repeated twice. Bound mAb or mAb² was detected by addition of 50 μL of anti-human 647 (Jackson ImmunoResearch) diluted to 3 ug/ml in FACS buffer. Cells were incubated for 1 hour at 4° C. in the dark. Cells were washed with 150 μL of PBS and centrifuged at 300 g for 3 minutes, supernatant was discarded and cell pellet resuspended in 150 μL PBS added. This wash step was repeated twice. Cells were fixed with 25 μL 4% v/v paraformaldehyde, incubated for 20 minutes at 4° C., cells were pelleted by centrifugation at 300×g and the supernatant discarded. […] AlexaFluor 647 signal intensity (geometric mean) was measured by flow cytometry using a Beckman Coulter CytoFLEX instrument.

[4] = biological target: T2, mouse ICOS-mFc (Chimerigen); test: HTRF, mouse ICOS-mFc, competitor mouse B7-H2-Alexa 647, n2
Method: (§4) 5 μl of human ICOS-mFc (Chimerigen) at 20 nM (5 nM final) or 5 ul of mouse ICOS-mFc (Chimerigen) at 4 nM (1 nM final) were added to relevant assay wells. Plate was incubated for 1 hour (hr) at room temperature (RT).
(§5) After incubation, assay was read on Envision plate reader (Perkin Elmer) using a standard HTRF protocol. 620 nm and 665 nm channel values were exported to Microsoft Excel and % Delta-F and % Neutralisation calculations performed. Titration curves and IC50 values [M] were plotted using Graphpad (Prism). IC50 values were calculated by first transforming the data using equation X=Log(X). The transformed data was then fitted using nonlinear regression, using fitting algorithm, log (inhibitor) vs. response—variable slope (four parameters).

[5] = biological target: T2, mouse ICOS-mFc (Chimerigen); test: DELFIA ELISA on coated mouse ICOS-mFc, N=3
Method: as §1, §2, §3

[6] = biological target: T2, mouse ICOS-mFc (Chimerigen); test: DELFIA ELISA on coated mouse ICOS-mFc, mean
Method: as §1, §2, §3

[7] = biological target: T2, mouse ICOS-mFc (Chimerigen); test: HTRF, mouse ICOS-mFc, competitor mouse B7-H2-Alexa 647, average
Method: as §4, §5

[8] = biological target: T1, human ICOS-mFc (Chimerigen); test: HTRF, human ICOS-mFc, competitor human B7-H2-Alexa 647, n2
Method: as §4, §5

- EC50 [1]: 28.9 nM
- EC50 [2]: 11.4 nM
- EC50 [3]: 20.1 nM
- IC50 [4]: 8.91 nM
- EC50 [5]: 1.73 nM
- EC50 [6]: 11.4 nM
- IC50 [7]: 8.71 nM
- IC50 [8]: 1.12 nM
B1: STIM001 (antibody, human IgG1, kappa)
heavy: not shown
light: DIVMTQSPLSLPVTPGEPASISCRSSQSLLHSNEYNYLDWYLQKPGQSPQLLIFLGSNRASGVPDRFSGSGSGTDFTLKITRVEAEDVGIYYCMQSLQTPLTFGGGTKVEIKRTVAAPSVFIFPPSDEQLKSGTASVVCLLNNFYPREAKVQWKVDNALQSGNSQESVTEQDSKDSTYSLSSTLTLSKADYEKHKVYACEVTHQGLSSPVTKSFNRGEC
notes: Anti-ICOS monospecific antibody, tested as human IgG1; also called STIM001 monoclonal IgG1 antibody

- EC50 [1]: 0.751 nM
- EC50 [2]: 0.416 nM
- EC50 [3]: 7.28 nM
- IC50 [4]: 0.14 nM
- EC50 [5]: 0.338 nM
- EC50 [6]: 0.38 nM
- IC50 [7]: 0.37 nM
- IC50 [8]: 0.45 nM
B2: STIM003 (antibody, human IgG1, kappa)
heavy: not shown
light: EIVLTQSPGTLSLSPGERATLSCRASQSVSRSYLAWYQQKRGQAPRLLIYGASSRATGIPDRFSGDGSGTDFTLSISRLEPEDFAVYYCHQYDMSPFTFGPGTKVDIKRTVAAPSVFIFPPSDEQLKSGTASVVCLLNNFYPREAKVQWKVDNALQSGNSQESVTEQDSKDSTYSLSSTLTLSKADYEKHKVYACEVTHQGLSSPVTKSFNRGEC
notes: Anti-ICOS monospecific antibody, tested as human IgG1; also called STIM003 monoclonal IgG1 antibody
